Changes are numbered by the printed parent chain. Names and notes keep the numbering of the source.
T1: PaParE1 toxin, wild type (Pseudomonas aeruginosa, UniProt Q9I708 1-93)
T1 sequence: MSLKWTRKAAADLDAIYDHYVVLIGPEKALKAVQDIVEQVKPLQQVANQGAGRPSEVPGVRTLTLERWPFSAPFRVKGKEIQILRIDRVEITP

B1: mCherry fused to full length ParD1 (natural protein, Pseudomonas aeruginosa, UniProt Q9I707 1-75, looked up)
chain: MSTVVSFRADDALVAALDELARATHRDRPYHLRQALAQYLERQQWQVAAIDEGLADANAGRLLEHIEIEKRWGLQ
B2: PaParD1 I68A, His-tagged (natural protein, Pseudomonas aeruginosa, UniProt Q9I707 1-75, looked up)
chain: B1 chain with I68A
B3: PaParD1 antitoxin, wild type, His-tagged (natural protein)
chain: B1 chain

Experiments:
PaParE1 toxin, wild type = biological target: T1, PaParE1 toxin, wild type; experiment: BLI
SEC-MALS = biological target: the molecule itself; experiment: SEC-MALS

Row | Binder | Kd (PaParE1 toxin, wild type) [nM] | stoichiometry N (SEC-MALS)
1 | B1 | 0.225 ± 0.0068 | –
2 | B2 | – | 2
3 | B3 | – | 2
4 | RQQWQVAAIDEGLADANAGRLLEHIEIEKRWGLQ (domain or fragment) [mCh-ParD1(42-75)] | 0.828 ± 0.55 | –
